Assay [1] addresses T1, human FGFR4 (FGF receptor 4) on cells (human, UniProt P22455 22-802).
T1 construct: whole, on cells; also called hFGFR4
As to the kind of experiment: flow cytometry titration on Huh-7 cells. As for the experimental part: Huh-7 cells (obtained from JCRB Cell Bank) were cultured in DMEM containing 10% FBS under standard conditions at 37° C. and 5% CO₂. Cells were harvested with 5 mM EDTA (in PBS) and 200,000 cells per sample were incubated with indicated anti-FGFR4 antibody (1:3 serial dilution; starting concentration 30 μg/ml) for 30 min at 4° C. After incubation, cells were washed and bound antibody was determined using a Phycoerythrin-labeled anti-human IgG antibody (Jackson Immuno Research). Antibody binding to Huh-7 was measured with a BD Accuri C6 flow cytometer (BD Biosciences, San Jose, Calif.; U.S.A.) and analyzed using the AccuriC6 software. Subsequently, the equilibrium dissociation constant (KD) was determined using Prism (GraphPad Software, La Jolla, Calif., U.S.A.).

The target of assay [2] is T1, human FGFR4 (FGF receptor 4) on cells. As to the kind of experiment: cell-based or functional assay.
The target is the same in assay [3]. Put plainly: cell-based or functional assay. The source holds these as a separate data set.
For assay [4], the target named is T2, extracellular domain of human FGFR4 (myc- and His-tagged) (human, UniProt P22455 22-369).
T2 construct: extracellular domain; Captured on the plate by a mouse anti-His tag antibody; also called human FGFR4-His/Myc; FGFR4 ECD; not shown: myc and His tags
Put plainly: ELISA, FGFR4 ECD (myc/His) captured by anti-His antibody, AP-coupled anti-human IgG F(ab') detection. The procedure: (§1) Mouse anti-His tag antibody was obtained from Bio-Rad (Hercules, Calif.; U.S.A.) and coated onto MaxiSorp® flat-bottom 96 well ELISA plates (Sigma, St. Louis, Mo.; U.S.A.) at a concentration of 2 μg/ml. After coating, the extracellular domain of human FGFR4 (myc- and His-tagged) was added at a concentration of 0.01 μg/ml. After removal of unbound protein, indicated antiFGFR4 antibody was added (1:4 serial dilution, starting concentration 10 μg/ml) and binding was finally detected with the AttoPhos® AP Fluorescent Substrate System (Promega) using an alkaline-phosphatase coupled goat anti-human IgG F(ab′) fragment on the Fluostar Omega fluorescent plate reader instrument from BMG Labtech (Ortenberg; Germany). Subsequently, dissociation constants were calculated for U4-3, -5 and -9 using Graph Pad Prism (Table 5).

The target in assay [5] is T2, extracellular domain of human FGFR4 …. Put plainly: ELISA, FGFR4 ECD (myc, His) captured by anti-His antibody. As for the experimental part: as §1
Assay [6] addresses antigen of the Biacore assay (FGFR4; construct not stated) (UniProt P22455 22-369, limits assumed). As to the kind of experiment: Biacore T100, antibody captured by anti-human IgG, antigen injected, bivalent analyte model, KD1, average of 3. As for the experimental part:
Standard amine coupling was applied to prepare a goat anti-human IgG capturing S-CM5 sensor chip (the reference flow cell contained the capturing antibody as well). The carboxymethylated dextran (CMD) surface was activated by injecting a mixture of 200 mM EDC and 50 mM NHS for 7 min (10 μl/min). Subsequently, 30 μg/ml anti-human IgG antibody diluted in 10 mM Na acetate pH 5.0 was injected for 7 minutes (10 μl/min). The remaining unreacted esters were quenched with 1 M Ethanolamine pH 8.5 (7 min, […]). Surface densities of 17892-18376 RU were obtained for the antihuman IgG antibody.
Interaction analyses of antigen with reversibly captured antibody were performed using a Biacore™ T100 instrument (GE Healthcare Bio-Sciences (Piscataway, N.J.; U.S.A.)) at 25° C. in HBS analysis buffer (10 mM HEPES pH 7.4, 150 mM NaCl, 50 μM EDTA, 0.05% Tween 20). 37-38 RU of specific antibody was captured on a flow cell. […] The dissociation was recorded for 10 min at the same flow rate. […]
Data processing (e.g. blank run subtraction) and evaluation was performed by global fitting applying a bivalent analyte binding model using the Biacore T100 Evaluation Software version 2.0.3. The equilibrium dissociation constant KD1 was calculated by dividing kd1 with ka1.

B1: human anti-FGFR4 antibody U4-6 (antibody, V domains shown)
VH: EVQLLESGGGLVQPGGSLRLSCAASGFTFSDYYMNWVRQAPGKGLEWVSAIGGSGDRTYYADSVKGRFTISRDNSKNTLYLQMNSLRAEDTAVYYCALGGSYFGYWGQGTLVTVSS
VL: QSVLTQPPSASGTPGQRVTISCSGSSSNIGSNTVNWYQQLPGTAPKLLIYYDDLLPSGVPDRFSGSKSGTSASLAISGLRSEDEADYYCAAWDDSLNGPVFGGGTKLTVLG
notes: IgG format
Regarding B1, the Kd in assay [1] came out at 1600 pM.

B2: FGFR4 binding Fab U4-1 (Fab, V domains shown)
VH: EVQLLESGGGLVQPGGSLRLSCAASGFTFSRNYMSWVRQAPGKGLEWVSAISGSGGSTYYADSVKGRFTISRDNSKNTLYLQMNSLRAEDTAVYYCARVTSPGAFDIWGQGTLVTVSS
VL: QSVLTQPPSASGTPGQRVTISCSGGTSNIGTNTVNWYQQLPGTAPKLLIYRNNQRPSGVPDRFSGSKSGTSSSLAISGLRSEDEADYYCAAWDDSLNGPYVVFGGGTKLTVLG
B2: in assay [2], the “Elk1 luciferase reporter gene assay, % of control (+rhFGF 17), Fab at 0.1 µg/ml” value is 70.4 % of control (+rhFGF 17); the “Elk1 luciferase reporter gene assay, % of control (+rhFGF 17), Fab at 1 µg/ml” value was 39.6 % of control (+rhFGF 17); the “Elk1 luciferase reporter gene assay, % of control (+rhFGF 17), Fab at 10 µg/ml” value is 32 % of control (+rhFGF 17).

B3: human anti-FGFR4 antibody U4-2 (antibody, V domains shown)
VH: EVQLLESGGGLVQPGGSLRLSCAASGFTFSKAWMSWVRQAPGKGLEWVSAISGSGGSTYYADSVKGRFTISRDNSKNTLYLQMNSLRAEDTAVYYCARLYSYGDFDHWGQGTLVTVSS
VL: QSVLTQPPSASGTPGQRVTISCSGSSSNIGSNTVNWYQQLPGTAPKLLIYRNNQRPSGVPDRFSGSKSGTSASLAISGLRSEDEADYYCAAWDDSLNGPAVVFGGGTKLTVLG
With B3, the Kd in assay [1] stood at 150 pM.

B4: human anti-FGFR4 antibody U4-8 (antibody, V domains shown)
VH: EVQLLESGGGLVQPGGSLRLSCAASGFTFSSNYMSWVRQAPGKGLEWVSSISGSGGRTYYADSVKGRFTISRDNSKNTLYLQMNSLRAEDTAVYYCARMTVFGAATLWGQGTLVTVSS
VL: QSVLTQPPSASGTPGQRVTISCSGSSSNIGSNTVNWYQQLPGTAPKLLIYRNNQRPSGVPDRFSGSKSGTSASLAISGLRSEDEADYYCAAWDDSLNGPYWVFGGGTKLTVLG
notes: IgG format
Consider B4, for which the Kd in assay [1] is 460 pM.

B5: FGFR4 binding Fab U4-2 (Fab, V domains shown)
VH: EVQLLESGGGLVQPGGSLRLSCAASGFTFSKAWMSWVRQAPGKGLEWVSAISGSGGSTYYADSVKGRFTISRDNSKNTLYLQMNSLRAEDTAVYYCARLYSYGDFDHWGQGTLVTVSS
VL: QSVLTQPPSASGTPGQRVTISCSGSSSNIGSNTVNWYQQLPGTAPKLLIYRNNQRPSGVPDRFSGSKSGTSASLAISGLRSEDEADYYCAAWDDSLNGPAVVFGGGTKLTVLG
As for B5, in assay [2], the “Elk1 luciferase reporter gene assay, % of control (+rhFGF 17), Fab at 0.1 µg/ml” value was 112 % of control (+rhFGF 17); the “Elk1 luciferase reporter gene assay, % of control (+rhFGF 17), Fab at 1 µg/ml” value was 43.8 % of control (+rhFGF 17); the “Elk1 luciferase reporter gene assay, % of control (+rhFGF 17), Fab at 10 µg/ml” value is 26.6 % of control (+rhFGF 17).

B6: FGFR4 binding Fab U4-8 (Fab, V domains shown)
VH: EVQLLESGGGLVQPGGSLRLSCAASGFTFSSNYMSWVRQAPGKGLEWVSSISGSGGRTYYADSVKGRFTISRDNSKNTLYLQMNSLRAEDTAVYYCARMTVFGAATLWGQGTLVTVSS
VL: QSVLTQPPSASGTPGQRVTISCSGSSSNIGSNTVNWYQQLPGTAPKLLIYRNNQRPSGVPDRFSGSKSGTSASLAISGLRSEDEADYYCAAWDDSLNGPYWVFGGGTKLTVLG
With B6, in assay [2], the “Elk1 luciferase reporter gene assay, % of control (+rhFGF 17), Fab at 0.1 µg/ml” value was 65.2 % of control (+rhFGF 17); the “Elk1 luciferase reporter gene assay, % of control (+rhFGF 17), Fab at 1 µg/ml” value was 22.5 % of control (+rhFGF 17); the “Elk1 luciferase reporter gene assay, % of control (+rhFGF 17), Fab at 10 µg/ml” value was 12.7 % of control (+rhFGF 17).

B7: human anti-FGFR4 antibody U4-1 (antibody, V domains shown)
VH: EVQLLESGGGLVQPGGSLRLSCAASGFTFSRNYMSWVRQAPGKGLEWVSAISGSGGSTYYADSVKGRFTISRDNSKNTLYLQMNSLRAEDTAVYYCARVTSPGAFDIWGQGTLVTVSS
VL: QSVLTQPPSASGTPGQRVTISCSGGTSNIGTNTVNWYQQLPGTAPKLLIYRNNQRPSGVPDRFSGSKSGTSSSLAISGLRSEDEADYYCAAWDDSLNGPYVVFGGGTKLTVLG
On to B7, for which the Kd in assay [1] amounted to 850 pM.

B8: human anti-FGFR4 antibody U4-9 (antibody, V domains shown)
VH: EVQLLESGGGLVQPGGSLRLSCAASGFTFSDYYMSWIRQAPGKGLEWVSTISGSGGSTYYADSVKGRFTISRDNSKNTLYLQMNSLRAEDTAVYYCARLTAYGHVDSWGQGTLVTVSS
VL: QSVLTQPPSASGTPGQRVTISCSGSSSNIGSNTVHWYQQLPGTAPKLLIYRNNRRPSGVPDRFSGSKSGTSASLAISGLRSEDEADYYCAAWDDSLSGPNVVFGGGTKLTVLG
notes: IgG format
B8: the “IC50, NIH3T3 spheroid growth assay (CellTiter-Glo)” value in assay [3] is 10600 pM. In assay [4], the “EC50 (read off the curve)” value is ~80 pM. For the same molecule, the Kd in assay [5] was 70 pM; in assay [6], 120 pM.

B9: human anti-FGFR4 antibody U4-7 (antibody, V domains shown)
VH: EVQLLESGGGLVQPGGSLRLSCAASGFTFSDYYMSWVRQAPGKGLEWVSAISGSGGSTYYADSVKGRFTISRDNSKNTLYLQMNSLRAEDTAVYYCATLATYGPFDDWGQGTLVTVSS
VL: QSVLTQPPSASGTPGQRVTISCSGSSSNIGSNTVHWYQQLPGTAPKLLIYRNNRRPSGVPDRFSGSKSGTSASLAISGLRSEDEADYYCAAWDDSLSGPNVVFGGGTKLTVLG
notes: IgG format
B9: the Kd in assay [1] was 1300 pM.

B10: FGFR4 binding Fab U4-7 (Fab, V domains shown)
VH: EVQLLESGGGLVQPGGSLRLSCAASGFTFSDYYMSWVRQAPGKGLEWVSAISGSGGSTYYADSVKGRFTISRDNSKNTLYLQMNSLRAEDTAVYYCATLATYGPFDDWGQGTLVTVSS
VL: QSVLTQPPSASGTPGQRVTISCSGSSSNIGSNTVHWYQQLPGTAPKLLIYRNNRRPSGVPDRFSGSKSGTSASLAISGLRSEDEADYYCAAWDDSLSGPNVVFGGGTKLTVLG
Turning to B10, in assay [2], the “Elk1 luciferase reporter gene assay, % of control (+rhFGF 17), Fab at 0.1 µg/ml” value is 72.6 % of control (+rhFGF 17); the “Elk1 luciferase reporter gene assay, % of control (+rhFGF 17), Fab at 1 µg/ml” value is 33.1 % of control (+rhFGF 17); the “Elk1 luciferase reporter gene assay, % of control (+rhFGF 17), Fab at 10 µg/ml” value was 16.8 % of control (+rhFGF 17).

B11: FGFR4 binding Fab U4-4 (Fab, V domains shown)
VH: EVQLLESGGGLVQPGGSLRLSCAASGFTFSSNYMSWVRQAPGKGLEWVSLISGSGGSTYYADSVQGRFTISRDNSKNTLYLQMNSLRAEDTAVYYCARNTAGFGYFDLWGQGTLVTVSS
VL: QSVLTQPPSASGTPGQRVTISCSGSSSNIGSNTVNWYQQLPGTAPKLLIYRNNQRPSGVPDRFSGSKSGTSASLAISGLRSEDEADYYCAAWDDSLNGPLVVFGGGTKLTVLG
In the case of B11, in assay [2], the “Elk1 luciferase reporter gene assay, % of control (+rhFGF 17), Fab at 0.1 µg/ml” value was 82.2 % of control (+rhFGF 17); the “Elk1 luciferase reporter gene assay, % of control (+rhFGF 17), Fab at 1 µg/ml” value was 28.8 % of control (+rhFGF 17); the “Elk1 luciferase reporter gene assay, % of control (+rhFGF 17), Fab at 10 µg/ml” value is 20.1 % of control (+rhFGF 17).

B12: FGFR4 binding Fab U4-5 (Fab, V domains shown)
VH: EVQLLESGGGLVQPGGSLRLSCAASGFTFSSNYMNWVRQAPGKGLEWVAVISYDGSNKYYADSVKGRFTISRDNSKNTLYLQMNSLRAEDTAVYYCVTKSRDFWRGPFDYWGQGTLVTVSS
VL: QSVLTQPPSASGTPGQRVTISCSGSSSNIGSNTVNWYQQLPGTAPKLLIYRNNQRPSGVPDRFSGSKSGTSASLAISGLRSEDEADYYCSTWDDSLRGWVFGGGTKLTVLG
As to B12, in assay [2], the “Elk1 luciferase reporter gene assay, % of control (+rhFGF 17), Fab at 0.1 µg/ml” value was 116 % of control (+rhFGF 17); the “Elk1 luciferase reporter gene assay, % of control (+rhFGF 17), Fab at 1 µg/ml” value is 43.2 % of control (+rhFGF 17); the “Elk1 luciferase reporter gene assay, % of control (+rhFGF 17), Fab at 10 µg/ml” value was 16.3 % of control (+rhFGF 17).

B13: human anti-FGFR4 antibody U4-5 (antibody, V domains shown)
VH: EVQLLESGGGLVQPGGSLRLSCAASGFTFSSNYMNWVRQAPGKGLEWVAVISYDGSNKYYADSVKGRFTISRDNSKNTLYLQMNSLRAEDTAVYYCVTKSRDFWRGPFDYWGQGTLVTVSS
VL: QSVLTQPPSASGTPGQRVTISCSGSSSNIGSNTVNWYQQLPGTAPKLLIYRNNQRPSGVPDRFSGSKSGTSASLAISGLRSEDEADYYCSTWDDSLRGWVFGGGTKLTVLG
notes: IgG format
In the case of B13, the Kd is 1500 pM in assay [1] and 80 pM in assay [5].

The values are drawn from US20170226213A1 (Daiichi Sankyo, published 2017).
